According to article PMC4838375:

Tests used:
Assay in all cases: ITC
[1] = molecular target: PHDVC5HCH_(NSD1) tandem domain (murine NSD1, Glu2117–Asp2207), wild type (mouse)
[2] = molecular target: PHDVC5HCH_(NSD1) H2205R (mouse) (UniProt O88491)
[3] = molecular target: PHDVC5HCH_(NSD1) E2204A (mouse) (UniProt O88491)
[4] = molecular target: PHDVC5HCH_(NSD1) R2152Q (mouse) (UniProt O88491)

Question: For C2HR_(Nizp1) R415A (peptide), which Kd [1] is on record?
Answer: The Kd was 6.1 µM.

Question: And the dH [1]?
Answer: The dH was 2.2 kcal/mol.

Question: And the stoichiometry N [1]?
Answer: Its stoichiometry N is 1.1.

Question: C2HR_(Nizp1) R417A (peptide) was tested. Which Kd [1] did it give?
Answer: Its Kd is 36 µM.

Question: What about the dH [1] of the same substance?
Answer: The dH was 1.5 kcal/mol.

Question: And the stoichiometry N [1]?
Answer: The stoichiometry N was 1.1.

Question: How did the dH [1] turn out when C2HR_(Nizp1) R427A (peptide) was run?
Answer: The dH was 1.7 kcal/mol.

Question: Which results are given for “C2HR_(Nizp1) synthetic peptide (murine Nizp1, E397-K434), wild type”?
Answer: Kd [2]: 27.2 µM; Kd [3]: 45.2 µM; Kd [4]: 4.9 µM; dH [4]: 3.5 kcal/mol; Kd [1]: 3.8 µM; dH [1]: 4.1 kcal/mol; stoichiometry N [1]: 1.1
